Measurements as given in the supplement of paper PMC10724198.
± gives the standard deviation of the averaged measurements.

What was measured:
Saccharomyces cerevisiae [1] = assay: protein stability index of tFT-peptide fusion (C-terminal peptide) (PSI (0-1 scale)); higher = more stable (slower turnover); conditions: genetic background: wild type; temperature: 30 C
Saccharomyces cerevisiae [2] = assay: as above
Experimental: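 MPS profiling in S. cerevisiae of the tFT-X12 degron library: putative degron peptides plus stable controls, 12 aa, fused to the C-terminus of a sfGFP-mCherry timer. Cells are FACS-sorted into 8 mCherry/sfGFP bins and deep-sequenced. PSI runs from 0 (unstable) to 1 (stable). Backgrounds are wild type, das1Δ and doa10Δ at 30 °C, and wild type, das1Δ, cdc34-1 and cdc53-1 at 37 °C; 2-3 technical replicates each.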

[3] = genetic background: cdc34-1, temperature: 37 C
[4] = genetic background: cdc53-1, temperature: 37 C
[5] = genetic background: das1 deletion, temperature: 30 C
[6] = genetic background: das1 deletion, temperature: 37 C
[7] = genetic background: doa10 deletion, temperature: 30 C
[8] = genetic background: wild type, temperature: 30 C
[9] = genetic background: wild type, temperature: 37 C
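Note: PSI is a weighted mean of sequencing reads over stability bins, variants kept only with over 10 reads, mCherry proximal and sfGFP distal, peptide attached via GGGS linker.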

Row | Sequence | protein stability index (Saccharomyces cerevisiae [1]) | protein stability index (Saccharomyces cerevisiae [2]; [3]) | protein stability index (Saccharomyces cerevisiae [2]; [4]) | protein stability index (Saccharomyces cerevisiae [2]; [5]) | protein stability index (Saccharomyces cerevisiae [2]; [6]) | protein stability index (Saccharomyces cerevisiae [2]; [7]) | protein stability index (Saccharomyces cerevisiae [2]; [8]) | protein stability index (Saccharomyces cerevisiae [2]; [9])
1 | RNTLLFKRILHI | 0.165 ± 0.059 | 0.671 ± 0.028 | 0.706 ± 0.017 | 0.637 ± 0.032 | 0.77 ± 0.018 | 0.0865 ± 0.024 | 0.108 ± 0.045 | 0.154 ± 0.0032
2 | PVFVLFFFSSLV | 0.44 ± 0.012 | 0.421 ± 0.012 | 0.533 ± 0.0086 | 0.371 ± 0.028 | 0.5579 ± 0.0041 | 0.329 ± 0.011 | 0.35 ± 0.013 | 0.5151 ± 0.0018
3 | EKTKTKRERKIN | 0.312 ± 0.028 | 0.576 ± 0.0019 | 0.696 ± 0.008 | 0.626 ± 0.045 | 0.715 ± 0.036 | 0.165 ± 0.0048 | 0.191 ± 0.015 | 0.384 ± 0.0062
4 | PRPETCHAVAVR | 0.4806 ± 0.0021 | 0.568 ± 0.012 | 0.588 ± 0.037 | 0.377 ± 0.034 | 0.575 ± 0.015 | 0.363 ± 0.0093 | 0.4 ± 0.029 | 0.58 ± 0.011
5 | LFVVFVLLTFFV | 0.279 ± 0.089 | 0.231 ± 0.039 | 0.253 ± 0.0056 | 0.243 ± 0.032 | 0.337 ± 0.014 | 0.207 ± 0.02 | 0.217 ± 0.031 | 0.29 ± 0.011
6 | FYLSSCFLFLRF | 0.355 ± 0.0087 | 0.174 ± 0.052 | 0.136 ± 0.046 | 0.311 ± 0.012 | 0.33618 ± 0.0003 | 0.62 ± 0.04 | 0.288 ± 0.017 | 0.305 ± 0.023
7 | AFFGIYLICFIV | 0.207 ± 0.073 | 0.118 ± 0.008 | 0.2044 ± 0.00042 | 0.225 ± 0.024 | 0.382 ± 0.014 | 0.1711 ± 0.001 | 0.125 ± 0.007 | 0.146 ± 0.013
8 | FLLCRVFVLLRS | 0.163 ± 0.045 | 0.043 ± 0.019 | 0.0441 ± 0.015 | 0.13 ± 0.037 | 0.215 ± 0.0095 | 0.1414 ± 0.0013 | 0.102 ± 0.018 | 0.125 ± 0.038
9 | PPPLPFPTPPPS | 0.433 ± 0.038 | 0.689 ± 0.0093 | 0.764 ± 0.041 | 0.644 ± 0.044 | 0.702 ± 0.0074 | 0.634 ± 0.025 | 0.646 ± 0.032 | 0.6663 ± 0.0036
10 | PTPSRPPHPPLR | 0.704 ± 0.02 | 0.704 ± 0.049 | 0.752 ± 0.05 | 0.633 ± 0.013 | 0.725 ± 0.054 | 0.658 ± 0.025 | 0.66 ± 0.0015 | 0.69 ± 0.0022
11 | PLTSPLLFPVFA | 0.376 ± 0.015 | 0.272 ± 0.044 | 0.338 ± 0.029 | 0.269 ± 0.024 | 0.376 ± 0.0081 | 0.219 ± 0.011 | 0.267 ± 0.017 | 0.381 ± 0.033
12 | VFSFGLLFQVCR | 0.502 ± 0.019 | 0.598 ± 0.04 | 0.625 ± 0.025 | 0.435 ± 0.022 | 0.6144 ± 0.0034 | 0.4081 ± 0.0038 | 0.452 ± 0.025 | 0.631 ± 0.053
13 | FVCWGSLILCGG | 0.264 ± 0.012 | 0.151 ± 0.0074 | 0.1833 ± 0.0012 | 0.19 ± 0.028 | 0.29 ± 0.0062 | 0.1516 ± 0.00087 | 0.181 ± 0.027 | 0.258 ± 0.0085
14 | VRRFNVLLYVRG | 0.425 ± 0.0063 | 0.459 ± 0.029 | 0.4921 ± 0.0032 | 0.311 ± 0.027 | 0.528 ± 0.0053 | 0.324 ± 0.0045 | 0.321 ± 0.019 | 0.523 ± 0.012
15 | PRIVLFLRLHSN | 0.21 ± 0.0069 | 0.555 ± 0.082 | 0.651 ± 0.042 | 0.512 ± 0.014 | 0.6891 ± 0.002 | 0.107 ± 0.029 | 0.118 ± 0.02 | 0.2184 ± 0.0019
16 | LYRIETLFMRAQ | 0.383 ± 0.021 | 0.353 ± 0.029 | 0.41 ± 0.022 | 0.435 ± 0.035 | 0.407 ± 0.035 | 0.389 ± 0.059 | 0.358 ± 0.019 | 0.354 ± 0.019
17 | VFSGVTTILVRT | 0.539 ± 0.11 | 0.578 ± 0.05 | 0.517 ± 0.026 | 0.37 ± 0.035 | 0.576 ± 0.022 | 0.346 ± 0.0089 | 0.392 ± 0.018 | 0.538 ± 0.0096
18 | LFVSLSFVVFLP | 0.34 ± 0.077 | 0.276 ± 0.0041 | 0.381 ± 0.014 | 0.26 ± 0.037 | 0.421 ± 0.013 | 0.261 ± 0.013 | 0.261 ± 0.025 | 0.391 ± 0.0072
19 | NGLVCVFILSWY | 0.375 ± 0.031 | 0.202 ± 0.022 | 0.261 ± 0.1 | 0.234 ± 0.038 | 0.437 ± 0.011 | 0.21 ± 0.012 | 0.238 ± 0.033 | 0.375 ± 0.0047
20 | LQLGFCFVAQFI | 0.509 ± 0.03 | 0.6346 ± 0.0062 | 0.675 ± 0.02 | 0.491 ± 0.035 | 0.6394 ± 0.0044 | 0.462 ± 0.03 | 0.476 ± 0.024 | 0.607 ± 0.02
21 | FSFFLYFFLLLF | 0.315 ± 0.0031 | 0.327 ± 0.025 | 0.304 ± 0.0072 | 0.31 ± 0.026 | 0.402 ± 0.016 | 0.392 ± 0.032 | 0.271 ± 0.034 | 0.389 ± 0.016
22 | NLVCLDPFLVFV | 0.581 ± 0.22 | 0.582 ± 0.027 | 0.612 ± 0.011 | 0.478 ± 0.018 | 0.613 ± 0.0077 | 0.475 ± 0.026 | 0.472 ± 0.025 | 0.5835 ± 0.003
23 | EGGGGRFWVCVG | 0.425 ± 0.028 | 0.676 ± 0.044 | 0.732 ± 0.012 | 0.631 ± 0.0097 | 0.748 ± 0.014 | 0.258 ± 0.0033 | 0.298 ± 0.034 | 0.596 ± 0.018
24 | SFFCFFLSFFYL | 0.502 ± 0.015 | 0.571 ± 0.027 | 0.53 ± 0.0091 | 0.471 ± 0.011 | 0.562 ± 0.018 | 0.475 ± 0.025 | 0.445 ± 0.013 | 0.539 ± 0.02
25 | VLGFRPLVFLCF | 0.3239 ± 0.0027 | 0.235 ± 0.058 | 0.252 ± 0.029 | 0.324 ± 0.029 | 0.4637 ± 0.0028 | 0.392 ± 0.011 | 0.304 ± 0.013 | 0.392 ± 0.0027
